Measured values: US20140170149A1 (Genmab, published 2014)
Where a chain is given by its changes, count along the chain named. Names may count otherwise.

B1: HER2 HuMab 084 (antibody, V domains shown)
VH: QVQLVQSGAEVKKPGSSVKVSCKASGGTFRTYAINWVRQAPGQGLEWMGRINTVLGIVNHAQKFQGRVTITADKSTNTAYMELNSLRSEDTAVYYCAREKGVDYYYGIEVWGQGTTVTVSS
VL: DIQMTQSPSSVSASVGDRVTITCRASQGISSWLAWYQHKPGKAPKLLIYVASTLQSGVPSRFSGSGSGTDFTLTISSLQPEDFATYYCQQANSFPLTFGGGTKVEIK
notes: also called PC1014-084
B2: HER2 HuMab 169 (antibody, V domains shown)
VH: QVQLVQSGAEVKKPGASVKVSCKASGYTFTNYGISWVRQAPGQGLEWMGWLSAYSGNTIYAQKLQGRVTMTTDTSTTTAYMELRSLRSDDTAVYYCARDRIVVRPDYFDYWGQGTLVTVSS
VL: EIVLTQSPATLSLSPGERATLSCRASQSVSSYLAWYQQKPGQAPRLLIYDASNRATGIPARFSGSGSGTDFTLTISSLEPEDFAVYYCQQRSNWPRTFGQGTKVEIK
B3: HER2 HuMab 060 (antibody, V domains shown)
VH: EVQLVQSGAEVKKPGESLKISCKGSGYRFTSYWIGWVRQMPGKGLEWMGSIYPGDSYTRNSPSFQGQVTISADKSIATAYLQWNSLKASDTAMYYCARHAGDFYYFDGLDVWGQGTTVTVSS
VL: not shown
notes: also called PC1014-060
B4: HER2 HuMab 025 (antibody, V domains shown)
VH: QVQLQQWGAGLLKPSETLSLTCAVYGGSFSDYYWNWIRQPPGKGLEWIGEIHHSGSTNYNPSLKSRVTISVDTSKNQFSLKLSSVTAADTAVYYCARGYYDSGVYYFDYWAQGTLVTVSS
VL: DIQMTQSPSSLSASVGDRVTITCRASQGISRWLAWYQQKPEKAPKSLIYAASSLRSGVPSRFSGSGSGTDFTLTISSLQPEDFATYYCQQYNSYPITFGQGTRLEIK
notes: also called PC1014-025; TH1014-025
B5: HER2 HuMab 159 (antibody, V domains shown)
VH: EVQLVQSGAEVKKPGESLKISCKGSGYNFTSYWIGWVRQMPGKGLEWMGIIYPGDSDTRYSPSFQGQVTISADKSISTAYLQWSSLKASDTAMYYCARWGTYYDILTGYFNWFDPWGQGTLVTVSS
VL: B4 VL with R31S, R55Q, N92Y, S93I, I96W, R103K, L104V
notes: also called PC1014-159
B6: HER2 HuMab 091 (antibody, V domains shown)
VH: QVQLQQWGAGLLKPSETLSLTCAVSGGSFSGYYWTWIRQPPGKGLEWIGEIYHSGDTNYNPSLKSRVTISVDTSKNQFSLKLYSVTAADTAVYYCARLYFGSGIYYLDYWGQGTLVTVSS
VL: B4 VL with R31S, A34V, R55Q, Y94F, I96P, R103K, L104V
notes: also called PC1014-091
B7: HER2 HuMab 098 (antibody, V domains shown)
VH: EVQLLESGGGLVQPGGSLRLSCAASGFTFSNYGMSWVRQAPGKGLEWVSAISGSAYSTYYADSVKGRFTISRDNSKNTLWLQMNSLRAEDTAVYYCAKAHYHGSGSYYTLFDYWGQGTLVTVSS
VL: B4 VL with R31S, R55Q, I96Y, R103K
notes: also called PC1014-098; TH1014-098
B8: HER2 HuMab 106 (antibody, V domains shown)
VH: EVQLVQSGAEVKKPGESLKISCKGSGYSFTRYWIGWVRQMPGKGLEWMGIIYPGDSDTRYSPSFQGQVTISADKSISTAYLQWSSLKASDTAMYYCARLTGDRGFDYYSGMDVWGQGTTVTVSS
VL: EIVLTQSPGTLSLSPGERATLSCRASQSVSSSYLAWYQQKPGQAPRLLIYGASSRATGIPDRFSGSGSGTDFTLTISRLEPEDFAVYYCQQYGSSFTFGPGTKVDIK
B9: HER2 HuMab 129 (antibody, V domains shown)
VH: QVQLVESGGGVVQPGRSLRLSCAASGFTFSTFAIHWVRQAPGKGLEWVAVISYDGGHKFYADSVKGRFTISRDNSKNTLYLQMNSLRAEDTAMYYCARGLGVWGAFDYWGQGTLVTVSS
VL: EIVLTQSPATLSLSPGERATLSCRASQSVSSYLAWYQQKPGQAPRLLIYDASNRATGIPARFSGSGSGTDFTLTISSLEPEDFAVYYCQQRSNWWTFGQGTKVEIK
notes: also called PC1014-129
B10: HER2 HuMab 111 (antibody, V domains shown)
VH: QVQLVQSGAEVKKPGSSVKVSCKASGGTFSSYGISWVRQAPGPGLEWMGRIIPILGIANYAQKFQGRVTITADKSTNTAYMELSSLRSEDTAVYYCARDQEYSSNWYYWGQGTLVTVSS
VL: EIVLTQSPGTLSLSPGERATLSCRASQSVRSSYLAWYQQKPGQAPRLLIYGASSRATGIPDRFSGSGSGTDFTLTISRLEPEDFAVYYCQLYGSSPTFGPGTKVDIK
notes: also called PC1014-111
B11: HER2 HuMab 127 (antibody, V domains shown)
VH: EVQLVQSGAEVKKPGESLTISCKGSGYSFSIYWIGWVRQMPGKGLEWMGIIFPGDSDIRYSPSFQGQVTISADKSISTAYLQWSSLKASDTAMYYCARQPGDWSPRHWYFDLWGRGTLVTVSS
VL: VIWMTQSPSLLSASTGDRVTISCRMSQGISSYLAWYQQKPGKAPELLIYAASTLQSGVPSRFSGSGSGTDFTLTISYLQSEDFATYYCQQYYSFPLTFGGGTKVEIK
B12: HER2 HuMab 132 (antibody, V domains shown)
VH: QVQLVQSGAEVKKPGASVKVSCKASGYTFTSYGISWVRQAPGQGLEWMGWISAYNGNSNYVQKFQGRVTMTTDTTTSTAYMELRSLTSDDTAVYYCAREYSYDSGTYFYYGMDVWGQGTTVTVSS
VL: EIVLTQSPATLSLSPGERATLSCRASQSVSSYLAWYQQKPGQAPRLLIYDASNRATGIPARFSGSGSGTDFTLTISSLEPEDFAVYYCQQRSNWPMYTFGQGTKLEIK
notes: also called PC1014-132
B13: HER2 HuMab 005 (antibody, human IgG1, V domains shown)
VH: EVQLVQSGAEVKKPGESLKISCKASGYSFHFYWIGWVRQMPGKGLEWMGSIYPGDSDTRYRPSFQGQVTISADKSISTAYLQWTSLKASDTAIYYCARQRGDYYYFYGMDVWGQGTTVTVSS
VL: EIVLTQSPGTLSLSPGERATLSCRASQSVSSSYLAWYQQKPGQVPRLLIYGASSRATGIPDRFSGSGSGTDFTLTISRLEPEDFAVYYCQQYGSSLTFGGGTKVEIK
notes: Human IgG1,κ; also called PC1014-005; TH1014-005
B14: HER2 HuMab 059 (antibody, V domains shown)
VH: QVQLVQSGAEVKKPGASVRVPCKASGYTFTRYGISWVRQAPGQGLEWMGWISAYNGKTYYAQKLQGRVTMTTDTSTSTAYMELRSLRSDDTAVYYCARSPLLWFEELYFDYWGQGTLVTVSS
VL: EIVLTQSPGTLSLSPGERATLSCRASQSVSSTYLAWYQQKPGQAPRLLIYGASSRATGIPDRFSGSGSGTDFTLTISRLEPEDFAVYYCQQYGTSLFTFGPGTKVDIK
notes: also called PC1014-059
B15: IgG1-hu-CLB-T3/4-F405L × IgG1-HER2-169-K409R (bispecific antibody)
heavy 1: not shown
VL 1: B2 VL
heavy 2: not shown
VL 2: EIVLTQSPATLSLSPGERATLSCSASSSVTYVHWYQQKPGQAPRLLIYDTSKLASGIPARFSGSGSGTDFTLTISSLEPEDFAVYYCFQGSGYPLTFGSGTKLEMR
notes: Made by 2-MEA-induced Fab-arm exchange; IgG1,κ
B16: IgG1-hu-CLB-T3/4-F405L × IgG1-HER2-153-K409R (bispecific antibody)
heavy 1: not shown
VL 1: B4 VL with R31S, A50D, R55Q, S67Y, T72S, T85I, N92K
heavy 2: not shown
VL 2: B15 VL 2
notes: Made by 2-MEA-induced Fab-arm exchange; IgG1,κ; also called huCLB-T3/4×HER2 153
B17: IgG1-hu-CLB-T3/4-F405L (antibody, V domains shown)
VH: EVQLVESGGGLVKPGGSLRLSCAASGFTFSSYGMFWVRQAPGKGLEWVATISRYSRYIYYPDSVKGRFTISRDNAKNSLYLQMNSLRAEDTAVYYCARRPLYGSSPDYWGQGTLVTVSS
VL: B15 VL 2
notes: Expressed as IgG1,κ with F405L
B18: HER2 HuMab 050 (antibody, V domains shown)
VH: EVQLLESGGGLVQPGGSLRLSCAASGFTFSSYAMNWVRQAPGKGLEWVSAISGRGGTTYYADSVKGRFTISRDNSKNTLYLQMSSLRAEDTAVYYCAKARANWDYFDYWGQGTLVTVSS
VL: B1 VL with V50A, T53I, L96I, G100Q, K103R, V104L
notes: also called PC1014-050

molecular target: T1, human epidermal growth factor receptor 2 (HER2) (human, UniProt P04626 23-1255); experiment: cell-based or functional assay

EC50, fab-CypHer5E internalization assay, AU565 cells [µg/mL] | Maximal MFI, fab-CypHer5E internalization assay, AU565 cells [MFI] | Binder
0.0305 | 71100 | B1
– | 38800 | B2
0.0362 | 68200 | B3
0.0301 | 63400 | B4
– | 92400 | B5
0.033 | 50700 | B6
0.0138 | 135000 | B7
0.0686 | 57400 | B8
0.00715 | 60300 | B9
0.0352 | 81700 | B10
~0.00968 | 138000 | B11
0.0114 | 112000 | B12
0.0214 | 95100 | B13
0.0148 | 77100 | B14

molecular target: T2, human CD3 protein complex (human, UniProt P07766 23-207; P09693 23-182; P04234 22-171; P20963 22-164); experiment: flow cytometry on Jurkat cells (CD3-expressing T cell line), MFI (PE) (Example 21)
T2 construct: whole, on cells; also called CD3 on Jurkat cells
T2 sequence (P07766 23-207, form in doubt, chain 1 of 4): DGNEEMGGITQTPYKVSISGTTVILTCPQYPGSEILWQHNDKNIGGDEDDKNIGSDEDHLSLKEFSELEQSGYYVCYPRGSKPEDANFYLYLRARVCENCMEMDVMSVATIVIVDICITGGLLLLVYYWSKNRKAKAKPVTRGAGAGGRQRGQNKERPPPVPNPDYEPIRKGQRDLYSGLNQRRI
T2 sequence (P09693 23-182, form in doubt, chain 2 of 4): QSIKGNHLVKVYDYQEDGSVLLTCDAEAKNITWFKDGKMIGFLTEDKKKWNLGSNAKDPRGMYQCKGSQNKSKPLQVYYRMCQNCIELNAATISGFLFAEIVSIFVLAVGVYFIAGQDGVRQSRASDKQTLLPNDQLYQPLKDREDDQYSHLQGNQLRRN
T2 sequence (P04234 22-171, form in doubt, chain 3 of 4): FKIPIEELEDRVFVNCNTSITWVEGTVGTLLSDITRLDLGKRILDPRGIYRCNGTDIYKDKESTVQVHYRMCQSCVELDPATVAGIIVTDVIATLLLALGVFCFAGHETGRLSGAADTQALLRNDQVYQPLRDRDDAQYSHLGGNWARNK
T2 sequence (P20963 22-164, form in doubt, chain 4 of 4): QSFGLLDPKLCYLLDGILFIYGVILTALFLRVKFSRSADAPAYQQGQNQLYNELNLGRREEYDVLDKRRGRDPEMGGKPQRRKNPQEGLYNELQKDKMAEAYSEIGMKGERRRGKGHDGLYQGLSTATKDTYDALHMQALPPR

EC50 (read off the curve) [µg/mL] | Binder
~0.2 | B15
~0.2 | B16
~0.03 | B17

molecular target: T1, human epidermal growth factor receptor …; experiment: flow cytometry on A431 cells (low HER2), PE-goat anti-human IgG, MFI; EC50 by non-linear regression (Example 12)
Description: (§1) Binding of HER2 antibodies was detected using a Phycoerythrin (PE)-conjugated goat-anti-human IgG antibody (Jackson). […] EC₅₀ values were determined by means of non-linear regression (sigmoidal dose-response with variable slope) using GraphPad Prism V4.03 software (GraphPad Software, San Diego, Calif., USA).

EC50 [µg/mL] | Binder
0.498 | B1
0.128 | B4
1.14 | B18
0.633 | B6
0.101 | B7
0.27 | B11

molecular target: T1, human epidermal growth factor receptor …; experiment: as above; remark: another data set of the same source
Description: as §1

EC50 [µg/mL] | Binder
0.415 | B2
0.855 | B5
0.316 | B9
0.068 | B12

molecular target: T1, human epidermal growth factor receptor …; experiment: as above; remark: another data set of the same source
Description: as §1

EC50 [µg/mL] | Binder
1.98 | B3
1.66 | B8
0.996 | B10
0.789 | B13
0.213 | B14

molecular target: T1, human epidermal growth factor receptor …; experiment: flow cytometry on AU565 cells (high HER2), PE-goat anti-human IgG, MFI; EC50 by non-linear regression (Example 12)
Description: as §1

EC50 [µg/mL] | Binder
0.491 | B1
0.58 | B4
0.722 | B18
0.965 | B6
0.336 | B7
2.29 | B11

molecular target: T1, human epidermal growth factor receptor …; experiment: as above; remark: another data set of the same source
Description: as §1

EC50 [µg/mL] | Binder
0.908 | B2
1.3 | B5
0.578 | B9
0.911 | B12

molecular target: T1, human epidermal growth factor receptor …; experiment: as above; remark: another data set of the same source
Description: as §1

EC50 [µg/mL] | Binder
2.68 | B3
1.55 | B8
0.915 | B10
0.818 | B13
1.31 | B14
